This series relates to Escherichia coli TOP10. In words: shrunken log2 fold change of peptide-encoding DNA abundance (4.5 h post-induction vs induction); higher = less antimicrobial activity (less host growth inhibition). As to conditions: time post-induction: 4.5 h; library: site-saturation at positions 5, 18, 19, 20.
On to RRIRFRPPRLPRPRPRPIYSPRP, for which the “shrunken log2 fold change” value is -0.751.
RRIRERPPRLPRPRPRPFVRPRP: the “shrunken log2 fold change” value is -0.146.
For the sequence RRIRVRPPRLPRPRPRPRVDPRP, the “shrunken log2 fold change” value was 0.455.
On to RRIRYRPPRLPRPRPRPFMWPRP, for which the “shrunken log2 fold change” value was -0.307.
For the sequence RRIRRRPPRLPRPRPRPYLMPRP, the “shrunken log2 fold change” value was -0.146.
Regarding RRIRGRPPRLPRPRPRPYDPPRP, the “shrunken log2 fold change” value was -0.0783.
RRIRNRPPRLPRPRPRPANRPRP: the “shrunken log2 fold change” value was -0.029.
Take RRIRNRPPRLPRPRPRPAFDPRP: the “shrunken log2 fold change” value worked out at 0.235.
For RRIRDRPPRLPRPRPRPPQEPRP, the “shrunken log2 fold change” value turned out to be 0.559.
Turning to RRIRSRPPRLPRPRPRPTSWPRP, the “shrunken log2 fold change” value came to 0.239.
As for RRIRPRPPRLPRPRPRPVEQPRP, the figure is 0.239; as for RRIRTRPPRLPRPRPRPIVWPRP, -0.0862.
Turning to RRIRPRPPRLPRPRPRPEAMPRP, the “shrunken log2 fold change” value is 0.0142.
Consider RRIRRRPPRLPRPRPRPRLFPRP, for which the “shrunken log2 fold change” value stood at 0.593.
Regarding RRIRPRPPRLPRPRPRPSPKPRP, the “shrunken log2 fold change” value came out at 0.218.
With RRIRRRPPRLPRPRPRPWHCPRP, the “shrunken log2 fold change” value is -0.18.
Turning to RRIRLRPPRLPRPRPRPEQAPRP, the “shrunken log2 fold change” value came to 0.0554.
Take RRIRQRPPRLPRPRPRPRLWPRP: the “shrunken log2 fold change” value turned out to be 0.504.
In the case of RRIRFRPPRLPRPRPRPSSCPRP, the “shrunken log2 fold change” value is -0.183.
RRIRARPPRLPRPRPRPNNYPRP: the “shrunken log2 fold change” value is -0.356.
In the case of RRIRFRPPRLPRPRPRPITAPRP, the “shrunken log2 fold change” value was -0.286.
With RRIRMRPPRLPRPRPRPACPPRP, the “shrunken log2 fold change” value was 0.262.
As to RRIRDRPPRLPRPRPRPYSPPRP, the “shrunken log2 fold change” value was 0.0205.
In the case of RRIRMRPPRLPRPRPRPNIIPRP, the “shrunken log2 fold change” value was found to be 0.23.
As to RRIRRRPPRLPRPRPRPQWKPRP, the “shrunken log2 fold change” value is 0.016.
The value for RRIRFRPPRLPRPRPRPQQDPRP was -0.24; that for RRIRRRPPRLPRPRPRPNNHPRP was -0.374.
For the sequence RRIRSRPPRLPRPRPRPTKKPRP, the “shrunken log2 fold change” value was 0.0472.
With RRIRHRPPRLPRPRPRPMLWPRP, the “shrunken log2 fold change” value is 0.0253.
The value for RRIRARPPRLPRPRPRPEWYPRP was 0.137; that for RRIRRRPPRLPRPRPRPQVFPRP was 0.408.
Turning to RRIRVRPPRLPRPRPRPTMIPRP, the “shrunken log2 fold change” value amounted to 0.0351.
Consider RRIRGRPPRLPRPRPRPEHYPRP, for which the “shrunken log2 fold change” value is -0.0809.
As to RRIRHRPPRLPRPRPRPQNQPRP, the “shrunken log2 fold change” value is -0.563.
For the sequence RRIRVRPPRLPRPRPRPFVPPRP, the “shrunken log2 fold change” value is -0.0478.
With RRIRVRPPRLPRPRPRPWPGPRP, the “shrunken log2 fold change” value was found to be 0.101.
Turning to RRIRGRPPRLPRPRPRPHPLPRP, the “shrunken log2 fold change” value amounted to 0.101.
The value for RRIRWRPPRLPRPRPRPKMNPRP was 0.0146; that for RRIRARPPRLPRPRPRPSMYPRP was 0.0294.
The value for RRIRPRPPRLPRPRPRPWSKPRP was 0.00178; that for RRIRTRPPRLPRPRPRPITMPRP was -0.595.
RRIRWRPPRLPRPRPRPFRIPRP: the “shrunken log2 fold change” value was -0.5.
In the case of RRIRLRPPRLPRPRPRPGEYPRP, the “shrunken log2 fold change” value is -0.0271.
Consider RRIRWRPPRLPRPRPRPKEFPRP, for which the “shrunken log2 fold change” value is -0.228.
As for RRIRHRPPRLPRPRPRPRLPPRP, the “shrunken log2 fold change” value stood at 0.131.
Take RRIRERPPRLPRPRPRPQCKPRP: the “shrunken log2 fold change” value is -0.276.
For the sequence RRIRMRPPRLPRPRPRPHSNPRP, the “shrunken log2 fold change” value stood at 0.0878.
Take RRIRHRPPRLPRPRPRPNWMPRP: the “shrunken log2 fold change” value was found to be 0.00348.
For RRIRMRPPRLPRPRPRPAVSPRP, the “shrunken log2 fold change” value is 0.494.
Consider RRIRNRPPRLPRPRPRPTGEPRP, for which the “shrunken log2 fold change” value was 0.394.
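Also: peptides expressed intracellularly from a pBAD plasmid library in pooled LB shake-flask culture, induced with 0.3% L-arabinose, DNA abundance read by NGS, three biological replicates, DESeq2 with apeglm shrinkage.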
